# Measured values as given in patent US20030087411.
# System: DAKAR-FLAG fusion protein (murine DAKAR residues 1 to 786 fused to FLAG)
row,Substance,cleavage products on SDS-PAGE / Western blot after in vitro incubation with the caspase
1,purified recombinant active caspase 3 (Pharmingen),in vitro incubation of DAKAR with 100 ng caspase 3 resulted in formation of approximately 40 and 45 kDa cleavage products
2,purified recombinant active caspase 8 (Pharmingen),incubation of DAKAR with 100 ng caspase 8 resulted in the formation of a 22 kDa cleavage product
